Results taken from patent US20090238836.

How the values were obtained:
[1] = biological target: T1, RBL2 (NM-005611), substrate peptide from a peptide library, Q08999
T1 chain: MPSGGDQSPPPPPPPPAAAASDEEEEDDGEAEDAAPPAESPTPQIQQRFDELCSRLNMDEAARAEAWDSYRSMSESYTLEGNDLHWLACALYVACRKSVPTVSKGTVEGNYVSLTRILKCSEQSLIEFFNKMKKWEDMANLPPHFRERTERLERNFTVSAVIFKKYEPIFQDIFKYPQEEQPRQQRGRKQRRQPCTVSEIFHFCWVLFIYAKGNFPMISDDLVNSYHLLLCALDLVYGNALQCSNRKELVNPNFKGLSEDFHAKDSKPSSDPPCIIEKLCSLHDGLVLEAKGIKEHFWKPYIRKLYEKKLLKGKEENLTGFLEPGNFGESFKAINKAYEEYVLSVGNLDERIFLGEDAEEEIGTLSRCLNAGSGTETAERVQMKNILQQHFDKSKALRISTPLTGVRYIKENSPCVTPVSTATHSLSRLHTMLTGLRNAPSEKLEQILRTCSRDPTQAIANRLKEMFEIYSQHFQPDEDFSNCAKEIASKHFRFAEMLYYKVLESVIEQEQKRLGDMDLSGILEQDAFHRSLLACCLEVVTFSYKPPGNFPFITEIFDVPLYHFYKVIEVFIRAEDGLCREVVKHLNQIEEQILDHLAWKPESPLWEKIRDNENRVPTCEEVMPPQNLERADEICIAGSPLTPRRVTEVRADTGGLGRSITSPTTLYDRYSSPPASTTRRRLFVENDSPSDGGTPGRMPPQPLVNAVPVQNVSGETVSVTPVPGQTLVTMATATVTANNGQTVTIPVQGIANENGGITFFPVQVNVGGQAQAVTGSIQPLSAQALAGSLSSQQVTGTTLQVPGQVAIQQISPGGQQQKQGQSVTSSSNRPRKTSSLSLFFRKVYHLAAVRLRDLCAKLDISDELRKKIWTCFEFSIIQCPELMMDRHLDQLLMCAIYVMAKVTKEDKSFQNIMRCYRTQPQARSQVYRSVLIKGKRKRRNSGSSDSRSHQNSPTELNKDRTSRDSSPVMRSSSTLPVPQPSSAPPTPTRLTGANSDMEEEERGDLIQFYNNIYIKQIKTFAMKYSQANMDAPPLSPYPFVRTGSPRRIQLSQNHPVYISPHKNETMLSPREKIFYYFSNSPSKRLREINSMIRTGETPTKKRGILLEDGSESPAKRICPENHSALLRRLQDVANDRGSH

[2] = biological target: T2, FoxO3a (NP-963853), substrate peptide from a peptide library, O43524
T2 chain: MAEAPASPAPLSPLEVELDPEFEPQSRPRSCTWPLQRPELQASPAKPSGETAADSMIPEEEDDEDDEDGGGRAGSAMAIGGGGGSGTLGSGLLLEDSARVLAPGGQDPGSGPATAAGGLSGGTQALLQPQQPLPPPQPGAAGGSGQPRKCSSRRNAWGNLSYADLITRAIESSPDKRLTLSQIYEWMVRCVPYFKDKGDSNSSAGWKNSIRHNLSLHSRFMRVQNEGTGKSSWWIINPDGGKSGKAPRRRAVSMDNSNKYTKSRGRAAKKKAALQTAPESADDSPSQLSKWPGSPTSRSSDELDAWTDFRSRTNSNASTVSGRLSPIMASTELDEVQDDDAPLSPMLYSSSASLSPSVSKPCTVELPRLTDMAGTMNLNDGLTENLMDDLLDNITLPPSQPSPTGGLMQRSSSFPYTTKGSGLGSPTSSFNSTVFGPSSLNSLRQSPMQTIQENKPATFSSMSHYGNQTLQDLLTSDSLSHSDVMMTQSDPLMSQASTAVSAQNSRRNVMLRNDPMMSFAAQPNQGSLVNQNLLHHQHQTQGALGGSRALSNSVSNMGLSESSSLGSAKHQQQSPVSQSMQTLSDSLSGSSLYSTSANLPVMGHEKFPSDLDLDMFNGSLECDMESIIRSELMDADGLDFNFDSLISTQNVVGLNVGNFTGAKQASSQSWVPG

B1: human Hip kinase 4 (HipK4), recombinant, expressed in Sf9 insect cells (protein)
chain: MSTIQSETDCYDIIEVLGKGTFGEVAKGWRRSTGEMVAIKILKNDAYRNRIIKNELKLLHCMRGLDPEEAHVIRFLEFFHDALKFYLVFELLEQNLFEFQKENNFAPLPARHIRTVTLQVLTALARLKELAIIHADLKPENIMLVDQTRCPFRVKVIDFGSASIFSEVRYVKEPYIQSRFYRAPEILLGLPFCEKVDVWSLGCVMAELHLGWPLYPGNNEYDQVRYICETQGLPKPHLLHAACKAHHFFKRNPHPDAANPWQLKSSADYLAETKVRPLERRKYMLKSLDQIETVNGGSVASRLTFPDREALAEHADLKSMVELIKRMLTWESHERISPSAALRHPFVSMQQLRSAHETTHYYQLSLRSYRLSLQVEGKPPTPVVAAEDGTPYYCLAEEKEAAGMGSVAGSSPFFREEKAPGMQRAIDQLDDLSLQEAGHGLWGETCTNAVSDMMVPLKAAITGHHVPDSGPEPILAFYSSRLAGRHKARKPPAGSKSDSNFSNLIRLSQVSPEDDRPCRGSSWEEGEHLGASAEPLAILQRDEDGPNIDNMTMEAERPDPELFDPSSCPGEWLSEPDCTLESVRGPRAQGLPPRRSHQHGPPRGATSFLQHVTGHH
In the case of B1, the “phosphorylation of library peptides (HTS kinase assay, streptavidin-SPA beads)” value [1] is reported as “The proteins identified as HipK4 substrates with the aid of such an experimental approach are the following, inter alia; FoxO3a (NP-963853) and RBL2 (NM-005611)” and the “phosphorylation of library peptides (HTS kinase assay, streptavidin-SPA beads)” value [2] is reported as “The proteins identified as HipK4 substrates with the aid of such an experimental approach are the following, inter alia; FoxO3a (NP-963853) and RBL2 (NM-005611)”.
